From publication doi:10.1101/134072
Where “and” joins values, the source holds several entries; their conditions need not be identical. Equal values may be shown once.

Legend:
[1] = biological target: T1, TDP-43 N-terminal domain (TDP-43^NTD), residues 1-80, no tags, Q13148; experiment: AUC; conditions: remark: other sources report otherwise
T1 chain: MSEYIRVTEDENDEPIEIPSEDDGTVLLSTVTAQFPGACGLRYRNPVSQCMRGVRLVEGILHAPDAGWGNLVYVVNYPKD

[2] = biological target: T1, TDP-43 N-terminal domain (TDP-43^NTD), …; experiment: SEC; conditions: remark: other sources report otherwise

- percent dimer at 2-5 μM [1]: 30%
- percent tetramer at 20 μM [1]: 10%
- stoichiometry N [1]: 2 and 4
- stoichiometry N [2]: 2 and 4
B1: TDP-43 N-terminal domain (TDP-43^NTD), residues 1-80, no tags, Q13148 1-80 (domain or fragment)
chain: T1 chain
